Data: US5629176A, “Human Kunitz-type protease inhibitor variants” (Novo Nordisk A/S, priority 1994, dated 1997)

Key:
[1] = biological target: Porcine trypsin (porcine) (UniProt P00761); assay: inhibition of the proteinase, 30 minutes preincubation, residual activity on a peptidyl nitroanilide substrate at 405 nm
[2] = biological target: T1, Human neutrophil cathepsin G (Homo sapiens, UniProt P08311); assay: Inhibition of serine proteinases: cathepsin G, peptidyl nitroanilide substrate; type: biochemical; conditions: 30 minutes incubation, substrate 0.6 mM, 405 nm
T1 construct: Human neutrophil cathepsin G and elastase were purified from extracts of PMNs; from tissue; host or cells: human polymorphonuclear leukocytes (PMNs)
T1 sequence (P08311 21-255): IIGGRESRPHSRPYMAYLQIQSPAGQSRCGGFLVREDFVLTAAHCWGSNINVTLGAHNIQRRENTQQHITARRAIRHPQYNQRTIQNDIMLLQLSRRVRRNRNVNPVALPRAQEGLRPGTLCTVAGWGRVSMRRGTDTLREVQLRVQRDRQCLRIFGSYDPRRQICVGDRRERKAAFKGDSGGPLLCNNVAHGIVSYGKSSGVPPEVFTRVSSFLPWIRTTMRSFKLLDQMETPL
Description: (§1) The variants were purified from the yeast culture medium as described in example 1. The concentration of KFN 1651 was determined from the absorbance at 214 nm using aprotinin as a standard. Porcine trypsin was obtained from Novo Nordisk A/S. Human plasmin was obtained from Kabi (Stockholm, Sweden). Human neutrophil cathepsin G and elastase were purified from extracts of PMNs according to the method described by Baugh and Travis, Biochemistry 15, 1976, 836-843.
(§2) Peptidyl nitroanilide substrates S2251 ans S2586 were obtained from Kabi (Stockholm, Sweden), and S7388 and M 4765 were obtained from Sigma Chemical Co. (St. Louis, Mo., USA).
(§3) The serine proteinases were incubated with various concentrations of KFN 1900 or 1901 for 30 minutes. Substrate was then added (0.6 mM) and residual proteinase activity was measured at 405 nm.

Porcine trypsin = biological target: T2, Porcine trypsin (Sus scrofa, UniProt P00761); assay: Inhibition of serine proteinases: trypsin, peptidyl nitroanilide substrate; type: biochemical; conditions: 30 minutes incubation, substrate 0.6 mM, residual activity at 405 nm
T2 construct: purchased Novo Nordisk A/S
Description: as §1, §2, §3

Human plasmin = biological target: T3, Human plasmin (Homo sapiens, UniProt P00747); assay: Inhibition of serine proteinases: plasmin, peptidyl nitroanilide substrate; type: biochemical; conditions: at 1 μM; 30 minutes incubation, substrate 0.6 mM, 405 nm
T3 construct: purchased Kabi (Stockholm, Sweden)
Description: as §1, §2, §3

[3] = biological target: T4, Human neutrophil elastase (Homo sapiens, UniProt P08246); assay: Inhibition of serine proteinases: neutrophil elastase, peptidyl nitroanilide substrate; type: biochemical; conditions: 30 minutes incubation, substrate 0.6 mM, 405 nm
T4 construct: Human neutrophil cathepsin G and elastase were purified from extracts of PMNs; from tissue; host or cells: human polymorphonuclear leukocytes (PMNs)
T4 sequence (P08246 30-267): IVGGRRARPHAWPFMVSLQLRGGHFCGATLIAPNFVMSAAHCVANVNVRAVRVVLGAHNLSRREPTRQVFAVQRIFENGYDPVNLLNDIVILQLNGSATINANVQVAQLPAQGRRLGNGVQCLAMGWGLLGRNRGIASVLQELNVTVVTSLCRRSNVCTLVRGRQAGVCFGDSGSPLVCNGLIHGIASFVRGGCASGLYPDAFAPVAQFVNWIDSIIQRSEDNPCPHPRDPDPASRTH
Description: as §1, §2, §3

collagenase = conditions: cited from earlier work

T3 sequence (P00747 581-810 limits assumed): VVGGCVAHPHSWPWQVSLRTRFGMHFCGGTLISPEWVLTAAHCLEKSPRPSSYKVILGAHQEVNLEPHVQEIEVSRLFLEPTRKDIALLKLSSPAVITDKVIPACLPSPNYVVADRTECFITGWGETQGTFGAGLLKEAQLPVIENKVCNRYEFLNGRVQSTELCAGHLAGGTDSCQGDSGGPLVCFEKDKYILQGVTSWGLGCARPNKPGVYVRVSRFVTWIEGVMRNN
T3 sequence (P00747 97-580 partner limits assumed): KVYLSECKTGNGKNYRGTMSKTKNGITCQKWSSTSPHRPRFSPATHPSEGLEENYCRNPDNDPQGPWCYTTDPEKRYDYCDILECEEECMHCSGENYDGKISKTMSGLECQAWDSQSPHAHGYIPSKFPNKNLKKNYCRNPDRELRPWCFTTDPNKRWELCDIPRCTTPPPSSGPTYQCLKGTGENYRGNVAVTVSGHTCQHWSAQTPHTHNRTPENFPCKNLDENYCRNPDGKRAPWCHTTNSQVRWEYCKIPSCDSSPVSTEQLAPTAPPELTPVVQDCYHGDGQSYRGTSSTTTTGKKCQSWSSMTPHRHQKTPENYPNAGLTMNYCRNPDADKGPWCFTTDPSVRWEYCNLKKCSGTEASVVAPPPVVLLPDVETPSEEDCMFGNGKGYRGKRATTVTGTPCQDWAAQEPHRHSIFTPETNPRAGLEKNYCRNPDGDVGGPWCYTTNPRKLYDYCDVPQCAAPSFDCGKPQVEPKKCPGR
T2 sequence (P00761 9-231): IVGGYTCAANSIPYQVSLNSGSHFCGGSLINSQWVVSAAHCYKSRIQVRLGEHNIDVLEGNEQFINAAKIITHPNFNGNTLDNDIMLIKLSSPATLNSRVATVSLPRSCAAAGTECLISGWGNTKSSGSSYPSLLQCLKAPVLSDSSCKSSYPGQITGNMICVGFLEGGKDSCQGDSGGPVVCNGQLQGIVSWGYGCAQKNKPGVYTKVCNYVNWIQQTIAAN

Substance | Ki [1] | inhibition of cathepsin G [2] | Ki (Porcine trypsin) | inhibition of plasmin (Human plasmin) | inhibition of neutrophil elastase [3] | inhibitory effect on collagenase (collagenase)
[R15K, D16A]-α3(VI) Kunitz-type domain analog (from UniProt P12111) | 50 nM | – | – | – | – | –
aprotinin(1-58, Val15) | – | – | – | – | – | inhibitory effect

Further lines, with some results ahead:

Ki [1] | inhibition of cathepsin G [2] | Ki (Porcine trypsin) | inhibition of plasmin (Human plasmin) | inhibition of neutrophil elastase [3] | Substance | inhibitory effect on collagenase (collagenase)
355 nM | – | – | – | – | [D16A]-α3(VI) Kunitz-type domain analog (from UniProt P12111) | –
– | did not inhibit | 50 nM | weak inhibitors | did not inhibit | KFN 1900: [R15K, D16A] analog of the human α3(VI) collagen Kunitz-type protease inhibitor domain, produced from yeast strain KFN-1900 | –
– | did not inhibit | 355 nM | weak inhibitors | did not inhibit | KFN 1901: [D16A] analog of the human α3(VI) collagen Kunitz-type protease inhibitor domain, produced from yeast strain KFN-1901 | –
